The results in this text go back to patent US20240052042A1 (Novartis, published 2024).

Experiment [1] has as its target T1, human NPR3 (counter target) (human, UniProt P17342 27-481, limits assumed).
T1 construct: Pannings used hNPR3-hFc; also called hNPR3; hNPR3-hFc
T1 sequence (looked up): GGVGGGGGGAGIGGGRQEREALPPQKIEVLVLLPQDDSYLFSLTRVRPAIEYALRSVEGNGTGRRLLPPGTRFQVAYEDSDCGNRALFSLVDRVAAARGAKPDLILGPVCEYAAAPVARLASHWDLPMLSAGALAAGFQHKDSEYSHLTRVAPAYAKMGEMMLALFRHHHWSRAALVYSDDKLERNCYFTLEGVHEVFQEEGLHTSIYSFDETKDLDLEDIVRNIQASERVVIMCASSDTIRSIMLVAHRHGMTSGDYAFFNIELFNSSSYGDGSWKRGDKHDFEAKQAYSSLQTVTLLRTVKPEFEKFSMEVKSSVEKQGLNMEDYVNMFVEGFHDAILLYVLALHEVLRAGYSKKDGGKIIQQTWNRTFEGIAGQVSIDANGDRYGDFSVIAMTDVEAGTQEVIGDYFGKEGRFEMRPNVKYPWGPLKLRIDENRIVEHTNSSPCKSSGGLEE
Put plainly: ELISA, IgG titrated on coated antigen, fluorescence [Cont.]. Background: In an ELISA, binding on a coated surface is turned into a signal by an enzyme label.

In experiment [2] the target is T2, human NPR3 in the presence of ANP (human, UniProt P17342 27-481; P01160 124-151, limits assumed).
T2 construct: also called hNPR3 + 100 nM ANP
T2 sequence (looked up): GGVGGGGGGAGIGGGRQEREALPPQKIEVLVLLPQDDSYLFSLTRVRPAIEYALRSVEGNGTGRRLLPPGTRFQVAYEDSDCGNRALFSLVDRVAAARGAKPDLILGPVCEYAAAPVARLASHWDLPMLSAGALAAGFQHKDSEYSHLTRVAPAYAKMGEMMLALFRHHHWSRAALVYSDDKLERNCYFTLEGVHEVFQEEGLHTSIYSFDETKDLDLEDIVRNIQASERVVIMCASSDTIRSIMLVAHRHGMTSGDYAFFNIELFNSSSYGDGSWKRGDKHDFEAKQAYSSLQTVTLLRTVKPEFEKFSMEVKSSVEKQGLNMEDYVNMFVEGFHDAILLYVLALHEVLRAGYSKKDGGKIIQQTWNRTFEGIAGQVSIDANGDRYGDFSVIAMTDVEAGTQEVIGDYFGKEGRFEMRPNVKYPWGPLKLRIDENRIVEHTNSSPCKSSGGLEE
T2 sequence (peptide, looked up): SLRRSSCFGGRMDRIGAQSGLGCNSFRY
As to the kind of experiment: ELISA, IgG titrated on coated antigen with ANP (250 fold molar excess), fluorescence [Cont.].

The target of experiment [3] is T3, human NPR1 on CHO-K1 cells in the presence of ANP (human, UniProt P01160 124-151).
T3 construct: also called hNPR1 CHO K1 + 100 nM ANP
T3 sequence: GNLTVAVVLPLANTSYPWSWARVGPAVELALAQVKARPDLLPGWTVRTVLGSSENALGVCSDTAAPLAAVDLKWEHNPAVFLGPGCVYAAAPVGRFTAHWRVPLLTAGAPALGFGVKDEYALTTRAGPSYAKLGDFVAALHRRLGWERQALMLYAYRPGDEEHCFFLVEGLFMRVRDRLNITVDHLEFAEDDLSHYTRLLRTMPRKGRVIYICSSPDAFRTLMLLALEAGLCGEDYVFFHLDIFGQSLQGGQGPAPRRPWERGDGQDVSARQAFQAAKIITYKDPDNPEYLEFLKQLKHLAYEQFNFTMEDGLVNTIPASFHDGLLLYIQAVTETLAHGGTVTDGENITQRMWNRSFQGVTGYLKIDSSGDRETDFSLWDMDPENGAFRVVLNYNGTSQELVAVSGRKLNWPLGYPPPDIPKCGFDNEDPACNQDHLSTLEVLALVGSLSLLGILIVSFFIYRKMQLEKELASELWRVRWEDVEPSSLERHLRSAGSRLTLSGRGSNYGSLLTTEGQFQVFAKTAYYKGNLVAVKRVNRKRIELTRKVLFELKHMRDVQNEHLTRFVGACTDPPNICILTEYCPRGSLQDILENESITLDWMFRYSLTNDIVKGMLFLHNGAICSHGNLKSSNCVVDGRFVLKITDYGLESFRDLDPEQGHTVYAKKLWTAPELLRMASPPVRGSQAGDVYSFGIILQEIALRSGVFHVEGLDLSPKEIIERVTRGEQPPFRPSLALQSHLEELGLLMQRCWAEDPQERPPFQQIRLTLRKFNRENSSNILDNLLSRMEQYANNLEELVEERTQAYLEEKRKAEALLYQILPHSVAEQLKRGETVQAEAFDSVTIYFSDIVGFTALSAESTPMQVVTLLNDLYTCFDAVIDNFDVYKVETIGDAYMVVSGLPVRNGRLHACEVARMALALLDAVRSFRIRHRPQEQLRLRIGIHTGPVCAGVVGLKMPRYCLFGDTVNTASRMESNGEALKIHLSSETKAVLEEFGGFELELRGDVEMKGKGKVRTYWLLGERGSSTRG
T3 sequence (peptide): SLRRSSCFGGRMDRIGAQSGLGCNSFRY
As to the kind of experiment: flow cytometry, hNPR1 CHO-K1 cells, IgG.

The target in another experiment is T4, hNPR1-ANP complex (human, UniProt P01160 124-151, limits assumed).
T4 construct: hNPR1 antigen in the presence of ANP; also called hNPR1 + 100 nM ANP
T4 sequence: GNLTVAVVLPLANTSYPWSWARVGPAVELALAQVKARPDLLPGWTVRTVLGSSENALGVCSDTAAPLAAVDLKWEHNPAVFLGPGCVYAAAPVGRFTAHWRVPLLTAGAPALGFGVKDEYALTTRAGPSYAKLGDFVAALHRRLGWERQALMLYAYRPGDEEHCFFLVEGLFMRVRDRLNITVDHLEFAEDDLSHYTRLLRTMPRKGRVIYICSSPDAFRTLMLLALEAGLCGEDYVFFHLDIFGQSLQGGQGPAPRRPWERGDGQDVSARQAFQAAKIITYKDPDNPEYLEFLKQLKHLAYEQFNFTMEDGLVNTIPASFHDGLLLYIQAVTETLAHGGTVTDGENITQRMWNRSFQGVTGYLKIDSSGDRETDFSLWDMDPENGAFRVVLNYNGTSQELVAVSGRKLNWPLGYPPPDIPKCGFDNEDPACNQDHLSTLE
T4 sequence (peptide): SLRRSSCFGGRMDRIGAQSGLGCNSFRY
As to the kind of experiment: ELISA, IgG.

For experiment [4], the target named is T5, human Natriuretic Peptide Receptor 1 (hNPR1) (human, UniProt P16066 33-473, limits assumed).
T5 construct: pannings used NPR1-hFc; also called NPR1-hFc
T5 sequence: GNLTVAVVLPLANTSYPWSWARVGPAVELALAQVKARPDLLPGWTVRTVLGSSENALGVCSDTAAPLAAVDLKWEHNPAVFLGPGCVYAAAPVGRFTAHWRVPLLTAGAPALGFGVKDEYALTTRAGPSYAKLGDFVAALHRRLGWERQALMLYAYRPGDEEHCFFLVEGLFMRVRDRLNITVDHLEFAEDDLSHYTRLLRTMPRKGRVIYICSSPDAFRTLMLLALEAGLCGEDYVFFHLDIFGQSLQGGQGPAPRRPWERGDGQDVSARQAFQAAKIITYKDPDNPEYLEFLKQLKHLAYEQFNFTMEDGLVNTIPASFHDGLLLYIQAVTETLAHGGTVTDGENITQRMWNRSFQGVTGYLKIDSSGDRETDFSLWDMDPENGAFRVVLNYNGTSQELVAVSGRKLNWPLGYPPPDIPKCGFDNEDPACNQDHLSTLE
Put plainly: ELISA, IgG.

B1: WW03 (IgG format) (antibody, V domains shown)
VH: QVQLLESGGGLVQPGGSLRLSCAASGFTFSSYWMNWVRQAPGKGLEWVSAISSDGSYTYYADSVKGRFTISRDNSKNTLYLQMNSLRAEDTAVYYCARDRYSMIYSYGAGAFDYWGQGTLVTVSS
VL: DIQMTQSPSSLSASVGDRVTITCRASQGISSYLAWYQQKPGKAPKLLIYTASTLQSGVPSRFSGSGSGTDFTLTISSLQPEDFATYYCMQSYEKPRTFGQGTKVEIKR
notes: also called WW03_LALA
A word on the EC50: it is the concentration that produces a half-maximal response. Read a high EC50 as lower potency in that assay. On to B1, for which the binding result in experiment [1] and in experiment [2] was “no binding (tested: 1000 nM)” in each case. In experiment [3], the “flow cytometry S/BG at 2 µM IgG” value came to 214 S/BG. Besides, the concentration giving a half-maximal response (EC50) with hNPR1-ANP complex worked out at 1.4 nM; in experiment [4] it was 42.7 nM.
